The target of the test is typhoid toxin PltB homopentamer (S. Typhi PltB, wild type) (Salmonella enterica serovar Typhi) (UniProt Q8Z6A3). The test is described as follows: crystal structure.

One substance from PMC7292776 can be followed below.

In general, stoichiometry N refers to a count of units in the complex or per binding partner. “typhoid toxin PltB homopentamer (S. Typhi PltB, wild type) (from UniProt Q8Z6A3 1-137) (natural protein)” yielded a stoichiometry N of 5.
